Results as given in patent publication US10254283.

Columns and labels:
[1] = test system: positional scanning peptide library Y-A-X-X-X-X-X-S/T-X-X-X-X-A-G-K-K-biotin

Flag-eIF4B (wild type), sequence (chain, as listed by the source): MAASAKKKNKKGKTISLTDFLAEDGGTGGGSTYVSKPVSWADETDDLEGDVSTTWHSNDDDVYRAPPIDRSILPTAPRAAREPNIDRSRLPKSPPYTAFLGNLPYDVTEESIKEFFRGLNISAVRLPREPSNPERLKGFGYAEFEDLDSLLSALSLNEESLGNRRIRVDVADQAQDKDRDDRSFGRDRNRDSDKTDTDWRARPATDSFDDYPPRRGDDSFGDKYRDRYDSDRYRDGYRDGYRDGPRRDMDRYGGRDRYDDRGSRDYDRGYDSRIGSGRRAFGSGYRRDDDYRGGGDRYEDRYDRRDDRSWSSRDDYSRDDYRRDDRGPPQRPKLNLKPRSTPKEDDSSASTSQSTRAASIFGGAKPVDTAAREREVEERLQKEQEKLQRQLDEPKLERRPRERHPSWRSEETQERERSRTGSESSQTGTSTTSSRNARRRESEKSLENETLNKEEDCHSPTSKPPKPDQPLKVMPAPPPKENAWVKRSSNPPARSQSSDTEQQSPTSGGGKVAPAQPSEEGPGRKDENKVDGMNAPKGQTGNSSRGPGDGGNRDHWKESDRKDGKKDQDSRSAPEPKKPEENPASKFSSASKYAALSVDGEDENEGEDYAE
Flag-eIF4B (S406A), sequence (chain, as listed by the source S406A): as the sequence (chain, as listed by the source) above, with S406A counted along it

For recombinant full-length MELK, the “in vitro kinase assay, phosphorylation of eIF4B at S406 (immunoblot)” value (Flag-eIF4B (S406A)) was “This phosphorylation was abolished when wild type (wt) eIF4B was replaced with a mutant eIF4B (S406A)”, the “in vitro kinase assay, phosphorylation of eIF4B at Ser406 (immunoblot)” value (Flag-eIF4B (wild type)) was “Ser406, but not Ser422, of human eIF4B was readily phosphorylated by full-length MELK or the kinase domain of MELK” and the “in vitro kinase assay, phosphorylation of eIF4B at Ser422 (immunoblot)” value (Flag-eIF4B (wild type)) was “MELK does not phosphorylates eIF4B at S422 in vitro”. The “positional scanning peptide library screen, in vitro phosphorylation with 32P-ATP” value [1] was “an optimal substrate motif for MELK was identified having a strong selection for arginine at the -3 position relative to serine/threonine”.
